Laboratory results reported in the supplement of paper PMC12764529.
± gives the half width of the 95% confidence interval.

Assay: folding stability dG unfold from trypsin proteolysis; higher = more stable
In short: (§1)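 Designed mini-proteins with no cysteine and under 80 residues were kept only if AlphaFold2 dimer inter-PAE was above 15. In a PA-tagged cDNA display construct, they were digested with trypsin and chymotrypsin and then sequenced. K50 was inferred by Bayesian fitting of counts, and unfolding free energy was derived per protease or combined against a sequence-predicted unfolded-state K50 and a shared folded-state K50.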

Row | Sequence | folding stability dG unfold
1 | SAGGSAGGSMKKITLTLTFPNGTTETLDITPLLEKSGLSPEEAIQLLKEELPENVTYKVTTEGSAGGSAGGS [r12_399_JUSTAS] | 2.69 ± 0.083 kcal/mol
2 | SAGGSAGGSKLSEEEKKKLAKKPKIKIKVKIRNKDGKEYKPGEKVKIEINGKIYEIESIEIEPSAGGSAGGS [r12_43_TrROS_Hall] | 1.12 ± 0.049 kcal/mol
3 | SEINFKPVKVDKNGNFYVENETKPGLVEKLIEAIKELFPGVEITEIKEIPEPPKIEIKAKHPSGKEFTFGSA [r9_1164_TrMRF] | 0.927 ± 0.074 kcal/mol
4 | SAGGSAGGSAGGPPDEVVTTVTEIELPDDKVVTVTTTTVPGAGTTTTTVTTKPLTKPGVSSAGGSAGGSAGG [r11_695_JUSTAS] | 2.5 ± 0.086 kcal/mol
5 | SAGGSAGGSKKKVKVKKFEKTKDADGNEVVKVFFEDDGKVVTLPEELADKLKEDDEFDLEDLASAGGSAGGS [r20_3_TrMRF] | -0.314 ± 0.077 kcal/mol
6 | SAGGIKIHVEREGNYYRIKIKWPNNNEISIPFDSPEDAEEQAEEQLQKQFPNMPPENVKIDEIEPYPPSAGG [r13_887_TrROS] | 0.173 ± 0.11 kcal/mol
7 | SASITLTAPGGKPVTLPVPPSLSVLSVELDPATGRWTIELQDPATGERFTVTVYAPPSGPAGVEVTPNVSAG [r14_311_JUSTAS] | 3.61 ± 0.04 kcal/mol
8 | SAGGSAGGSAGKNPDGQPAPTIEIEPRTRELPDNGYKITIMRIRFPDSGVEFPMIMISPPSAGGSAGGSAGG [r17_31_TrROS] | 0.833 ± 0.072 kcal/mol
9 | SAETVVNVTISRPPPSKYSVTITIQPPTSSTSLPTTTDLPPGAYEELLAALQKAHPNLTFSTVTETSDGSAG [r14_969_JUSTAS] | 0.614 ± 0.03 kcal/mol
10 | SAGGSAGGSAGPTYKIKIYFEDTGVEAEVEINEDGSLTITVPKELLPPGAKVKVEIVKVPSAGGSAGGSAGG [r17_392_TrROS_Hall] | 1.28 ± 0.057 kcal/mol
11 | SAGGSAGGSAGVSPNEDVKVEVLEVKPDPETGTYTVLVKDPRTGEERTLTLTPEELAKLLSAGGSAGGSAGG [r11_894_JUSTAS] | 4.42 ± 0.19 kcal/mol
12 | SMKITPLPGPEEVAEFPETGETITITRDPSTGLVTVTYNGPGTPVTATTDPAVGTVTVNTPDGKITIPLTSA [r9_541_JUSTAS] | 0.669 ± 0.02 kcal/mol
13 | SAGGIEVEAESERVEGGVLRVTVTAADPDGVPIVLELPVPPGAPEITEEEARELAVEAALKVAAELASAGGS [r8_123_TrMRF] | 0.887 ± 0.034 kcal/mol
14 | SAGGSAGGSNYINVKIEIWDPPNGKEREITINIPVPPGDPDYLKEIVNELASNFPGYYVKVEISAGGSAGGS [r12_795_TrROS] | 1.61 ± 0.11 kcal/mol
15 | MTVELETTDIEELLARIEEAAAAGKNVTVTAKPEEFEKIRAEGFKIDEILEVKPVPGDDTVVTLINISPEGS [r1_173_JUSTAS] | 1.11 ± 0.038 kcal/mol
16 | SPAKPVPIEITMHGDGMFEIRLPNGKEISFPNPDGQWAQATVDPDEGTIEIEMYNNGKRHTFEIPLPPNDSA [r9_226_TrROS] | 0.153 ± 0.14 kcal/mol
17 | SAGGSAGGSMSVTVVGRVPGLGLVEVVIHRPDEPVVVTVPRSEVEALLAAFPYPDAVVTTRDASAGGSAGGS [r12_23_JUSTAS] | -0.043 ± 0.047 kcal/mol
18 | SAGGSAGGSAGGSKAKKITIWIPPGNINPEVKDQLQKEGINIEIQPIPAKRDPDGKPRWSAGGSAGGSAGGS [r4_294_TrROS] | -0.558 ± 0.34 kcal/mol
19 | SAGGSAGGSAPKIIVVKPEDIVEAVKKADPNEKVLLFDPETGEIYEITPDKMEFIEKIPPGESAGGSAGGSA [r18_246_TrMRF] | 0.0456 ± 0.13 kcal/mol
20 | SAGGSAGGSAGGPVVIRLKVDMSPEEVEALAKELASLPNVKVEWDEESRVLTVTLSEEDLSAGGSAGGSAGG [r7_219_TrROS_Hall] | 2.46 ± 0.09 kcal/mol
21 | SAGGSAGGSAGGSVTVERYPDGKVTTTTTDPTRPVTTVTLAEVEPGPGKVLTETVTPVPSAGGSAGGSAGGS [r10_613_JUSTAS] | 0.835 ± 0.057 kcal/mol

Row | Sequence | folding stability dG unfold
22 | SAMKEGETVRIELVVVVPPGASVEELADALRALFGPDAEIRVEVEEVTVEVDGKTYRVLTVRVEIRLRKSAG [r14_633_TrROS_Hall] | 3.44 ± 0.05 kcal/mol
23 | SAGKMKIIEVKPGEEIKITIPEEGKKVKIYVYNKNGEKVEEKEVEIKPGQTLTFKIPKEDAKVIIEIEDSAG [r5_797_TrROS_Hall] | 1.75 ± 0.062 kcal/mol
24 | SAGGSAGGSAGGNKVTIPIHIPPGDPGNPEKAIEWAEHIAKELQEKNGGKDVDINIMPSPSAGGSAGGSAGG [r7_440_TrROS] | 0.772 ± 0.1 kcal/mol
25 | SAGKKIKIVKVEVTYDPETKEVTVKITIYNENGEKIKEIELTYEPGMSEEEVREKAEALVRKLIEEGKLSAG [r5_238_TrROS_Hall] | 2.75 ± 0.15 kcal/mol
26 | SAGGSAGGSAGGSMVKISKEPDRLTITITPGNTPLVFESTEPISEEEFVEKAKKENPLISAGGSAGGSAGGS [r4_191_JUSTAS] | 0.215 ± 0.13 kcal/mol
27 | SAGGSAGGSAGWIWMKVTEVNPDDGTIKIKFDGQKIKIPAKNMKIREDGDYVEIEIPEDDSAGGSAGGSAGG [r17_403_TrROS] | 0.137 ± 0.16 kcal/mol
28 | SAGGSAGGTIMIQFPDMDSPEEAIDQAEFFINEFMKQGNPGKPIKVTIQDPKNGQQQTFEIPLESAGGSAGG [r6_238_TrROS] | -0.935 ± 0.49 kcal/mol
29 | SAGGKVEVETKAYFIPETGEVVLLTTVRVETDEEPSEEERENLPEGATRTETFTFVFVFPAKPGSLLSAGGS [r8_274_TrMRF] | 2.46 ± 0.064 kcal/mol
30 | SAGGSAGGSAGPEKTVTLRVKITNADGQEQTLELTAETEEEALAALRALLPPGAKVEIEPSAGGSAGGSAGG [r11_671_TrROS_Hall] | 1.99 ± 0.067 kcal/mol
31 | SAGGSAGGSAGKHTFNIKDIEIKEVVPSNNYYVVRIEMTFPDGKEHKFTFYFPPGDPITLSAGGSAGGSAGG [r11_211_TrROS] | 1.97 ± 0.055 kcal/mol
32 | SLEVARELGLPVERAIPTSVDPFNGRTHLVVLVSLPSRFVRIEVDVRYEPDPDGRLIPRVEVLRIEVFPESA [r9_613_TrMRF] | 2.59 ± 0.048 kcal/mol
33 | SAGGMKVATVTLLTRDPSSDRTFEVTVEVPDDIVEKGDIEEAIARAKQLAEERGYPILEVEVEVKEPPSAGG [r13_954_JUSTAS] | 1.13 ± 0.046 kcal/mol
34 | SAGGLYVFDKNGKIISKVPKVEPIPIVITFPDGEKVLFEKYPGLNIIVVSYEGENPEKVKEAVKKILSSAGG [r13_701_TrMRF] | 0.835 ± 0.075 kcal/mol
35 | SAMTVTITLPPSISPEEAKAALEAAFPGEDIQVTTTTDPNAGTLTVTVTFSSPEDAARAAALLAEVRAASAG [r14_443_JUSTAS] | 2.86 ± 0.046 kcal/mol
36 | SAGGSADIPSDWTVTPVSSSYDPATGTTTTEETVYDSKGNPQYKITVTTTFDPTTGTTTTTVTYNPSAGGSA [r15_1028_JUSTAS] | 2.37 ± 0.066 kcal/mol
37 | SAGGSMTLEEKSEEDYIIRYVEKGDTYSLIKINPNTGTAEVTTFKPGGVPSKTTYKIPKGKELKVTGSAGGS [r8_11_JUSTAS] | -0.0399 ± 0.11 kcal/mol
38 | SAGGMSEALLADPTVEKVELFPSPGVTVYYRPETGTWLIQPPDGSVEEIKMTPEELEKLIADGLKPASAGGS [r16_745_JUSTAS] | 0.839 ± 0.11 kcal/mol
39 | SAGGKIEIHPDTLVVRIEVENKDGSTEEITLELKGLTEEELEDLLKELAAQLPDPDVKVKIVEIRRLPSAGG [r13_29_TrROS_Hall] | 2.63 ± 0.13 kcal/mol
40 | SAGGEPVLVPVKGTFENPELGVKVEVEAYFFPEFDFALVNVKVTPYSPDGKPLEVEGTFVVSVSELLKSAGG [r13_807_TrMRF] | 2.02 ± 0.082 kcal/mol
41 | SATGAIVLEKPVEFNIPDKNGKPVFKSKVLIFVDPGKDKVYALIYDPKTGKKLIVEFNSPEEVKKFFESSAG [r14_508_TrMRF] | 1.65 ± 0.031 kcal/mol
42 | SAGGSAPAEKVAQTLLDLGFTEVRVEEDPETDLVTVEVIDPDGTRLEIRVDPKDPRIVEIRPRSLKSAGGSA [r15_648_TrMRF] | -0.351 ± 0.14 kcal/mol

Assay: folding stability dG unfold from chymotrypsin proteolysis; higher = more stable
In short: as §1

Row | Sequence | folding stability dG unfold
43 | SAGGSAGGSMKKITLTLTFPNGTTETLDITPLLEKSGLSPEEAIQLLKEELPENVTYKVTTEGSAGGSAGGS [r12_399_JUSTAS] | 3.152 ± 0.03 kcal/mol
44 | SAGGSAGGSKLSEEEKKKLAKKPKIKIKVKIRNKDGKEYKPGEKVKIEINGKIYEIESIEIEPSAGGSAGGS [r12_43_TrROS_Hall] | 1.36 ± 0.04 kcal/mol
45 | SEINFKPVKVDKNGNFYVENETKPGLVEKLIEAIKELFPGVEITEIKEIPEPPKIEIKAKHPSGKEFTFGSA [r9_1164_TrMRF] | 0.789 ± 0.11 kcal/mol
46 | SAGGSAGGSAGGPPDEVVTTVTEIELPDDKVVTVTTTTVPGAGTTTTTVTTKPLTKPGVSSAGGSAGGSAGG [r11_695_JUSTAS] | 1.12 ± 0.029 kcal/mol
47 | SAGGSAGGSKKKVKVKKFEKTKDADGNEVVKVFFEDDGKVVTLPEELADKLKEDDEFDLEDLASAGGSAGGS [r20_3_TrMRF] | 0.381 ± 0.053 kcal/mol
48 | SAGGIKIHVEREGNYYRIKIKWPNNNEISIPFDSPEDAEEQAEEQLQKQFPNMPPENVKIDEIEPYPPSAGG [r13_887_TrROS] | 0.504 ± 0.15 kcal/mol
49 | SASITLTAPGGKPVTLPVPPSLSVLSVELDPATGRWTIELQDPATGERFTVTVYAPPSGPAGVEVTPNVSAG [r14_311_JUSTAS] | 3.409 ± 0.02 kcal/mol
50 | SAGGSAGGSAGKNPDGQPAPTIEIEPRTRELPDNGYKITIMRIRFPDSGVEFPMIMISPPSAGGSAGGSAGG [r17_31_TrROS] | 1.51 ± 0.091 kcal/mol
51 | SAETVVNVTISRPPPSKYSVTITIQPPTSSTSLPTTTDLPPGAYEELLAALQKAHPNLTFSTVTETSDGSAG [r14_969_JUSTAS] | 0.758 ± 0.15 kcal/mol
52 | SAGGSAGGSAGPTYKIKIYFEDTGVEAEVEINEDGSLTITVPKELLPPGAKVKVEIVKVPSAGGSAGGSAGG [r17_392_TrROS_Hall] | 1.66 ± 0.098 kcal/mol
53 | SAGGSAGGSAGVSPNEDVKVEVLEVKPDPETGTYTVLVKDPRTGEERTLTLTPEELAKLLSAGGSAGGSAGG [r11_894_JUSTAS] | 4.53 ± 0.073 kcal/mol
54 | SMKITPLPGPEEVAEFPETGETITITRDPSTGLVTVTYNGPGTPVTATTDPAVGTVTVNTPDGKITIPLTSA [r9_541_JUSTAS] | -0.512 ± 0.22 kcal/mol
55 | SAGGIEVEAESERVEGGVLRVTVTAADPDGVPIVLELPVPPGAPEITEEEARELAVEAALKVAAELASAGGS [r8_123_TrMRF] | 0.517 ± 0.034 kcal/mol
56 | SAGGSAGGSNYINVKIEIWDPPNGKEREITINIPVPPGDPDYLKEIVNELASNFPGYYVKVEISAGGSAGGS [r12_795_TrROS] | 1.61 ± 0.058 kcal/mol
57 | MTVELETTDIEELLARIEEAAAAGKNVTVTAKPEEFEKIRAEGFKIDEILEVKPVPGDDTVVTLINISPEGS [r1_173_JUSTAS] | 0.699 ± 0.083 kcal/mol
58 | SPAKPVPIEITMHGDGMFEIRLPNGKEISFPNPDGQWAQATVDPDEGTIEIEMYNNGKRHTFEIPLPPNDSA [r9_226_TrROS] | 0.499 ± 0.17 kcal/mol
59 | SAGGSAGGSMSVTVVGRVPGLGLVEVVIHRPDEPVVVTVPRSEVEALLAAFPYPDAVVTTRDASAGGSAGGS [r12_23_JUSTAS] | 0.205 ± 0.028 kcal/mol
60 | SAGGSAGGSAGGSKAKKITIWIPPGNINPEVKDQLQKEGINIEIQPIPAKRDPDGKPRWSAGGSAGGSAGGS [r4_294_TrROS] | 1.2 ± 0.036 kcal/mol
61 | SAGGSAGGSAPKIIVVKPEDIVEAVKKADPNEKVLLFDPETGEIYEITPDKMEFIEKIPPGESAGGSAGGSA [r18_246_TrMRF] | 0.884 ± 0.039 kcal/mol
62 | SAGGSAGGSAGGPVVIRLKVDMSPEEVEALAKELASLPNVKVEWDEESRVLTVTLSEEDLSAGGSAGGSAGG [r7_219_TrROS_Hall] | 2.98 ± 0.056 kcal/mol
63 | SAGGSAGGSAGGSVTVERYPDGKVTTTTTDPTRPVTTVTLAEVEPGPGKVLTETVTPVPSAGGSAGGSAGGS [r10_613_JUSTAS] | 1.3 ± 0.14 kcal/mol
